Experimental findings from paper PMC6262395, “A Rhodococcal Transcriptional Regulatory Mechanism Detects the Common Lactone Ring of AHL Quorum-Sensing Signals and Triggers the Quorum-Quenching Response” (Frontiers in Microbiology, 2018) are described below.

The target in data set [1] is T1, QsdR (TetR-family repressor) (Rhodococcus erythropolis R138) (UniProt A0A0C2W9F0).
T1 sequence: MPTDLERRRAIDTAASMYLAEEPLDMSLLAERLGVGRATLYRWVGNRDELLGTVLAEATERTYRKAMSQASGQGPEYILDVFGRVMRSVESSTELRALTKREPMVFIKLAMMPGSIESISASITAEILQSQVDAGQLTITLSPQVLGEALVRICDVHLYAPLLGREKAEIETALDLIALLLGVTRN
Description: EMSA. The note with it: LightShift Chemiluminescent EMSA Kit (Thermo Scientific) as per manufacturer, 20 ul reaction; buffer, salt, pH and temperature not stated. (In general: A gel shift assay detects complexes by their altered migration in electrophoresis.)

For data set [2], the target named is T1, QsdR (TetR-family repressor) (Rhodococcus erythropolis R138). Description: competition. Conditions: LightShift Chemiluminescent EMSA Kit (Thermo Scientific) as per manufacturer, 20 ul reaction; buffer, salt, pH and temperature not stated.
For the next data set, the target named is T2, QsdR (Rhodococcus erythropolis, UniProt A0A0C2W9F0).
T2 construct: gene I3517_23075; full-length qsdR ORF in pET19, His-tagged (tag kept), expressed in E. coli BL21(DE3), Ni-NTA; 186 residues, asymmetric dimer
T2 sequence (A0A0C2W9F0 1-186): T1 sequence
The experiment in a line: EMSA, release of QsdR from biotin-labelled qsdR-qsdA intergenic DNA. The note with it: ligand/QsdR molecule ratio 0.1 to 100; 2 μg His-tagged QsdR, 0.4 ng DNA; effector that relieves DNA binding.

On to “CATTCCTCAAGTGCGCCATCGAAGAACCTGGTCTGACTCCCGGTGTCGAGCGTGTGATGCGAGCGGTCGGTCAGGCGCAGGTCGAAACCGGGGTACCGATCACGGTTCACACGAACCCGCACACGGAATCGGGCCTCGTTGCGCAGAAGGTTCTGGCCGAGGAAGGTGCAGATCTGA (double strand) [qsdA internal fragment (negative control)]”, for which the binding entry in data set [1] is “no binding”. The same measure, in the same setting: with “GGTAGGCATCGGGACATTCTCTCCGGTTGTCCGGTACTGCACAATTTCGGCGGTCGAACAGAGGTGGGCTTCGGGTGGCTCGAGCCTATTGACGAACCAAGCGACGTGAGACACACTAGCTCATTGTCTCATGTTAGTGATGGCGATCACAGTCAGGGGTTCGATCGATGAG (double strand)” the entry was “binds”. In the case of “GGTAGGCATCGGGACATTCTCTCCGGTTGTCCGGTACTGCACAATTTCGGCGGTCGAACAGAGGTGGGCTTCGGGTGGCTCGAGCCTATTGACGAACCAAGCGACGTGAGACACACTAGCTCATTGTCTCATGTTAGTGATGGCGATCACAGTCAGGGGTTCGATCGATGAG (double strand) [unlabeled qsdR-qsdA intergenic competitor]”, the binding entry in data set [2] is on record as “binds”.

`N[C@H]1CCOC1=O` [HSL, homoserine lactone]: on QsdR, the “EMSA, release of QsdR from biotin-labelled qsdR-qsdA intergenic DNA” value was “Addition of increased amounts of HSL induced a proportional increase in free DNA”.
